“And” between values parts separate entries of the source, which are not always exact repeats. Equal values may be shown once.
How the values were obtained:
[1] = Serum stability of po 1-mer conjugate, HPLC method (b), column 2; format: in vitro ADME; conditions: 37° C.; for Average Peak area / Trial Peak area: human serum
Procedure: Studies were carried out at physiological conditions. The analyses were accomplished using reversed-phase HPLC and PAGE methods. The raw data are presented in table format (Tables 1, 2 and 3). The serum half-life calculated is t1/2=1/k (0.693), derived from the [A]=[A0]e^−kt, where [A0] is the original amount of substrate, [A] is the measured substrate level, t is time (min), and k is the first-order rate constant.
(b) Reaction Conditions: 100 μl of human serum were added to 20 nmoles of HPLc purified po 1-mer Conjugate and incubated at 37° C. for allotted time periods (0 min, 15 min, 60 min, 120 min, 240 min). HPLC gradient: 100% Buffer A (0.05M NaxPO4 (pH 5.8) in 2% CH3CN) for 5 min, then 2% CH3CN to 50% CH3CN over the next 20 min. Column 2: flow 4.7 ml/min, Rainin Semi-Preparative C18 reversed-phase column (10 mm i.d.×250 mm L) (Table 2).

TS = target: T1, TS (Mus musculus, UniProt P07607); test: TS activity in liver of xenografted mice; format: in vivo, CD-1 nude mice; conditions: treated
T1 construct: from tissue; host or cells: liver of CD-1 nude mice
T1 sequence (P07607 whole entry): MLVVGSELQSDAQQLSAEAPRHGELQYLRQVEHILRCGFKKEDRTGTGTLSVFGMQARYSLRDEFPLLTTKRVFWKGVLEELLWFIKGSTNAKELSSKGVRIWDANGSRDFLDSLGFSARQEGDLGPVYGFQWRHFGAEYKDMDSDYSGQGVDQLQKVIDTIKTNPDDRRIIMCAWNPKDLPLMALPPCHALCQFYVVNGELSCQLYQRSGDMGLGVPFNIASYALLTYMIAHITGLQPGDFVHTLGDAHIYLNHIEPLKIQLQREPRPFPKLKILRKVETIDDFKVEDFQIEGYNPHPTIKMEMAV
Procedure: Initial effects of po 1-mer treatment were noticed after about 5 weeks. Overall, however, tumors continued to grow after this point, but at a slower rate than the control. For instance, at 8 weeks post po 1-mer treatment, the average tumor weight of xenografted human hepatomas in nude CD-1 mice was about 7 g, whereas the average tumor weight of the saline control was about 15 g. Histological analysis was performed after 8 weeks in order to compare the tumors of the control cohort with the tumors of po 1-mer-treated nude mice. […] This weight loss may then be due to the tumor burden, rather than the therapeutic treatment, and was continued through week 8.
After the treatment was completed, tumors were analyzed both histologically and for TS activity. […] Therefore, it can be deduced that increasing the dose of po 1-mer increased the efficacy without increasing systemic toxicity.

With `CC(=O)N[C@H]1[C@H](OCCCCCCNC(=O)CC[C@H](NC(=O)CC[C@H](NC(=O)[C@H](Cc2ccc(O)cc2)NC(=O)C2CCC(CN3C(=O)CC(SCCCCCCOP(=O)(O)OC[C@H]4O[C@@H](n5cc(F)c(=O)[nH]c5=O)C[C@@H]4O)C3=O)CC2)C(=O)NCCCCCCO[C@@H]2O[C@H](CO)[C@H](O)[C@H](O)[C@H]2NC(C)=O)C(=O)NCCCCCCO[C@@H]2O[C@H](CO)[C@H](O)[C@H](O)[C@H]2NC(C)=O)O[C@H](CO)[C@H](O)[C@@H]1O` (stereo partly shown) [po 1-mer, YEE(ahGalNAc)3-SMCC-poFU] as the molecule, how does the “Average Peak area” value ([1]; 0 min) read?
Its value is 13.57.

And the “Trial Peak area” value ([1]; 0 min, listed as po 1-mer Conjugate)?
Its value is 13.07 and 12.68 and 14.97.

What about the “Average Peak area” value ([1]; 15 min) of the same molecule?
Its value is 14.86.

What about the “Trial Peak area” value ([1]; 15 min) of the same molecule?
Its value is 14.86.

What about the “Average Peak area” value ([1]; 60 min) of the same molecule?
Its value is 14.22.

And the “Trial Peak area” value ([1]; 60 min)?
The value was 14.22.

What about the “Average Peak area” value ([1]; 120 min) of the same molecule?
The value was 11.96.

And the “Trial Peak area” value ([1]; 120 min)?
The value was 11.96.

And the “Average Peak area” value ([1]; 240 min)?
Its value is 9.727.

What about the “Trial Peak area” value ([1]; 240 min) of the same molecule?
Its value is 9.727.

And the half-life at 200 µM ([1]; human, serum, HPLC (b), read-out: serum t1/2)?
Its half-life at 200 µM is 6.78 h.

And the “TS activity, COUNTS/MG PROTEIN” value (TS; weekly 10 mg/kg)?
Its value is 19718 counts/mg protein.

What about the “TS activity, COUNTS/MG PROTEIN” value (TS; weekly 15 mg/kg) of the same molecule?
Its value is 18989 counts/mg protein.
